In the supplement of paper PMC10065799, “High-throughput profiling of sequence recognition by tyrosine kinases and SH2 domains using bacterial peptide display” (eLife, 2023):
Values belong to the sequence of their own block, whether it stands above or below them.

Assays:
[1] = biological target: FGFR3 (UniProt P22607); assay: phosphorylation enrichment, bacterial display (enrichment ratio); higher = better substrate or ligand; peptides without Tyr show the background
[2] = biological target: MERTK (UniProt Q12866); assay: as above
[3] = biological target: Hck (UniProt P08631); assay: as above
[4] = biological target: Fes (UniProt P07332); assay: as above
[5] = biological target: Fyn (UniProt P06241); assay: as above
[6] = tested on: Fer (mouse); assay: as above
[7] = tested on: c-Abl (mouse); assay: as above
[8] = biological target: EPHB1 (UniProt P54762); assay: as above
[9] = tested on: AncSZ; assay: as above
[10] = biological target: Jak2 (UniProt O60674); assay: as above
[11] = tested on: c-Src; assay: as above
[12] = biological target: FGFR1 (UniProt P11362); assay: as above
[13] = biological target: EPHB2 (UniProt P29323); assay: as above
[14] = biological target: Grb2 SH2 (UniProt P62993); assay: SH2 binding enrichment of the phosphorylated peptide, bacterial display (enrichment ratio); higher = better substrate or ligand; peptides without Tyr show the background
[15] = biological target: c-Src SH2; assay: as above
[16] = biological target: SHP2-C SH2; assay: as above
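Throughout, for SH2 binding enrichment of the phosphorylated peptide, bacterial display: peptide library displayed on the E. coli surface as eCPX fusions, selected cells deep-sequenced, score is each peptide's frequency after selection divided by its frequency in the input.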
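Throughout, for phosphorylation enrichment, bacterial display: 11-residue human phosphosite peptides and single-mutation variants displayed on the E. coli surface, counted by deep sequencing, each peptide's frequency after selection divided by its frequency in the unselected input library; frequency after pTyr selection over input frequency; kinase dosed for 20-30% of maximal phosphorylation in three min.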

Chain of Fyn (P06241 whole entry, looked up): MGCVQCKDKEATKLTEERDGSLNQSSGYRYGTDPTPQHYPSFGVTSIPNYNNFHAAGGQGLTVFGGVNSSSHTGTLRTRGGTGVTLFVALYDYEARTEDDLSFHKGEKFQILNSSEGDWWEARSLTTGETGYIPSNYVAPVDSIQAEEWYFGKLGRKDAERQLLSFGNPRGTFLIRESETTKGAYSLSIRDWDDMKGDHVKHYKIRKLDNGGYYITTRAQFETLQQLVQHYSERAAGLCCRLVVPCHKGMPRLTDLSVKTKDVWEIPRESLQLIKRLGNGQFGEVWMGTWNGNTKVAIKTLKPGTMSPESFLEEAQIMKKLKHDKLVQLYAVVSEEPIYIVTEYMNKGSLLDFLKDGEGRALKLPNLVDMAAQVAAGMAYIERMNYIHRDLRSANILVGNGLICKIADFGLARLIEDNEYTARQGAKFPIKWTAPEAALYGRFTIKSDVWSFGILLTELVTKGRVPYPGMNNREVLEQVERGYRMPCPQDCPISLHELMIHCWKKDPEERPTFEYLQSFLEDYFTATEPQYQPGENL
Chain of EPHB1 (P54762 whole entry, looked up): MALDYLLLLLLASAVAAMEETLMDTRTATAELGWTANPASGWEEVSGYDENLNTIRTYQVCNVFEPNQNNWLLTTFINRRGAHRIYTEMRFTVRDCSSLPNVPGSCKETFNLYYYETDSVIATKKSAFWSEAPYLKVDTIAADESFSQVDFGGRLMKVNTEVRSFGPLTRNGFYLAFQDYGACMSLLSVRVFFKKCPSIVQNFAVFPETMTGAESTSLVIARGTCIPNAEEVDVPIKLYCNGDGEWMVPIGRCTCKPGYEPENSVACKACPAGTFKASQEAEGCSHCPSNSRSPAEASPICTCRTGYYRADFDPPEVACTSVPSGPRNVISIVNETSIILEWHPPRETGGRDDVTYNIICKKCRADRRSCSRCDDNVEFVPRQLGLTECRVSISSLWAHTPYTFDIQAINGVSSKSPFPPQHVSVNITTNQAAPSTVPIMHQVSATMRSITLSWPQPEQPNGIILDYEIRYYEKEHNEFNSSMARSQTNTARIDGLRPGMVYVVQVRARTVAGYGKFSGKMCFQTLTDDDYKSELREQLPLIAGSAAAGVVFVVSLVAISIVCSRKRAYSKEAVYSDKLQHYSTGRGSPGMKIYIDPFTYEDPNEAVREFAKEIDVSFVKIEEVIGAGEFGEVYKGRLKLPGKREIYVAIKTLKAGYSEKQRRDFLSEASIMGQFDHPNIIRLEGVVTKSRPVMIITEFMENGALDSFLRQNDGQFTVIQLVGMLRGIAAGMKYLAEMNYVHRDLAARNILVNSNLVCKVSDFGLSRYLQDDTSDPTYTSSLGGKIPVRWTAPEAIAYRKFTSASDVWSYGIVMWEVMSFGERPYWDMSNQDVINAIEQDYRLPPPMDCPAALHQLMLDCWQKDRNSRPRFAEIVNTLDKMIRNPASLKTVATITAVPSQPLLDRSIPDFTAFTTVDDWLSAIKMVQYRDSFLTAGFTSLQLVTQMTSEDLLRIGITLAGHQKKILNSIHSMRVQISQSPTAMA
Chain of EPHB2 (P29323 whole entry, looked up): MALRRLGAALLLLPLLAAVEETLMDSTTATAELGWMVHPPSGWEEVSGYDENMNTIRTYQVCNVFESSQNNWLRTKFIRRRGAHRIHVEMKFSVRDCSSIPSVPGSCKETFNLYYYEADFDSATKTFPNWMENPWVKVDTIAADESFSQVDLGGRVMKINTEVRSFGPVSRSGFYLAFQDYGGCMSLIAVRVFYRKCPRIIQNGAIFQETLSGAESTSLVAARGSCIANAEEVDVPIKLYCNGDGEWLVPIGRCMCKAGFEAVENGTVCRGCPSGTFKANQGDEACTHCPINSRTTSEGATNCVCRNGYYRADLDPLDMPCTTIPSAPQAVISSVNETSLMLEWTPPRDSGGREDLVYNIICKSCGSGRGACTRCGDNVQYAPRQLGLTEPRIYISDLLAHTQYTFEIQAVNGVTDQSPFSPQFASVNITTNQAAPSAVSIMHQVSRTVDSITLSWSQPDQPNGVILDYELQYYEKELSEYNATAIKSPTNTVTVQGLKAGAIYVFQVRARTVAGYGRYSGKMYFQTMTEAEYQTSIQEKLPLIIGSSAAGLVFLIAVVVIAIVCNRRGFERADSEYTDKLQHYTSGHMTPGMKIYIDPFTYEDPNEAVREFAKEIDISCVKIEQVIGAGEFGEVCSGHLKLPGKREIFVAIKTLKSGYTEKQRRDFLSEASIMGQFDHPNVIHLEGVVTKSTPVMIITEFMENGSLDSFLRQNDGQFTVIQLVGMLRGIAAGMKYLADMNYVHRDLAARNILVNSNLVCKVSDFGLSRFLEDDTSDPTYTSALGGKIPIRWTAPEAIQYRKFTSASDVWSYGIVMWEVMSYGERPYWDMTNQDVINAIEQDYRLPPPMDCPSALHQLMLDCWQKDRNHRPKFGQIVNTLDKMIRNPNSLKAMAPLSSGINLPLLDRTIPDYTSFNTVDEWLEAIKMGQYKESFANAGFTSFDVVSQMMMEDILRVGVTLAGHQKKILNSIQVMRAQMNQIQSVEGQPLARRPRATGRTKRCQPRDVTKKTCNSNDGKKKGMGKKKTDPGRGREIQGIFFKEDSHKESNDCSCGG
Chain of Hck (P08631 whole entry, looked up): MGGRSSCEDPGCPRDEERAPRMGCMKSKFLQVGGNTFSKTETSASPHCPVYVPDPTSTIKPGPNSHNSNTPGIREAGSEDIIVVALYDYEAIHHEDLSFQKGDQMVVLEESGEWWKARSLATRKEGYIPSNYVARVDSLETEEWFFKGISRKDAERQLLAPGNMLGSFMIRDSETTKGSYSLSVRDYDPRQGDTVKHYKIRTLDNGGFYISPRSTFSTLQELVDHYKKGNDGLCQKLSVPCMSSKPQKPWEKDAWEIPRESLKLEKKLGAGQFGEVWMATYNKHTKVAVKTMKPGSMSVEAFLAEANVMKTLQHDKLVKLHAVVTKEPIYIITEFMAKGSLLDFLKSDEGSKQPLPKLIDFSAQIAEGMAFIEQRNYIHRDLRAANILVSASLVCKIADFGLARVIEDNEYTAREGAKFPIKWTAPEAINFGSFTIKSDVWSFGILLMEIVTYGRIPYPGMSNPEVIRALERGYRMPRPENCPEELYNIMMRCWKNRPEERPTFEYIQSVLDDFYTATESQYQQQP
Chain of MERTK (Q12866 whole entry, looked up): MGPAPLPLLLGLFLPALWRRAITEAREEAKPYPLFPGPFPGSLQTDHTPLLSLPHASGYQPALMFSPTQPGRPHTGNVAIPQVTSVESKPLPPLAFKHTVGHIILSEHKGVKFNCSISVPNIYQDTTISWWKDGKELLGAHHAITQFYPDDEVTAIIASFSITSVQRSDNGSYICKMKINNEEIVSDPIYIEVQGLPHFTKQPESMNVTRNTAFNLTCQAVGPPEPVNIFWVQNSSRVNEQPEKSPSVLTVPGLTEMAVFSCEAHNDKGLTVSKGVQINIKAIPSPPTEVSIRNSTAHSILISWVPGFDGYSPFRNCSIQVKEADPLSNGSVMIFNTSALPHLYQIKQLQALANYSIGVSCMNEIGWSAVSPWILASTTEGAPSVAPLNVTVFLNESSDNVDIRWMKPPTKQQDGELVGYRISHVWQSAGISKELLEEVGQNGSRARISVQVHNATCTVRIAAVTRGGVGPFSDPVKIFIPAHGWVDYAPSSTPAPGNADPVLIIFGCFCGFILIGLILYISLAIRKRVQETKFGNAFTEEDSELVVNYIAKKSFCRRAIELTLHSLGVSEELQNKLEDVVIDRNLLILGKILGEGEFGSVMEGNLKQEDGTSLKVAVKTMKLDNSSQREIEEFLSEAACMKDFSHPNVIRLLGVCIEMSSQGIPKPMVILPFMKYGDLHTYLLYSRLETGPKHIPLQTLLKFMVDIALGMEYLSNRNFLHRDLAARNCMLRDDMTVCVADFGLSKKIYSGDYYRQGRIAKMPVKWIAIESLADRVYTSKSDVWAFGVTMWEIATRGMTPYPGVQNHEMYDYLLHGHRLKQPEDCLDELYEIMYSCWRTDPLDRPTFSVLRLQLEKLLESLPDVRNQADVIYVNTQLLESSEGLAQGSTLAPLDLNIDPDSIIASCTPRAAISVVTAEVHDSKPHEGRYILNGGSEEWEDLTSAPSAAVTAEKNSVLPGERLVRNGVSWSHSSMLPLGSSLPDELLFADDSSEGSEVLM
Chain of FGFR3 (P22607 whole entry, looked up): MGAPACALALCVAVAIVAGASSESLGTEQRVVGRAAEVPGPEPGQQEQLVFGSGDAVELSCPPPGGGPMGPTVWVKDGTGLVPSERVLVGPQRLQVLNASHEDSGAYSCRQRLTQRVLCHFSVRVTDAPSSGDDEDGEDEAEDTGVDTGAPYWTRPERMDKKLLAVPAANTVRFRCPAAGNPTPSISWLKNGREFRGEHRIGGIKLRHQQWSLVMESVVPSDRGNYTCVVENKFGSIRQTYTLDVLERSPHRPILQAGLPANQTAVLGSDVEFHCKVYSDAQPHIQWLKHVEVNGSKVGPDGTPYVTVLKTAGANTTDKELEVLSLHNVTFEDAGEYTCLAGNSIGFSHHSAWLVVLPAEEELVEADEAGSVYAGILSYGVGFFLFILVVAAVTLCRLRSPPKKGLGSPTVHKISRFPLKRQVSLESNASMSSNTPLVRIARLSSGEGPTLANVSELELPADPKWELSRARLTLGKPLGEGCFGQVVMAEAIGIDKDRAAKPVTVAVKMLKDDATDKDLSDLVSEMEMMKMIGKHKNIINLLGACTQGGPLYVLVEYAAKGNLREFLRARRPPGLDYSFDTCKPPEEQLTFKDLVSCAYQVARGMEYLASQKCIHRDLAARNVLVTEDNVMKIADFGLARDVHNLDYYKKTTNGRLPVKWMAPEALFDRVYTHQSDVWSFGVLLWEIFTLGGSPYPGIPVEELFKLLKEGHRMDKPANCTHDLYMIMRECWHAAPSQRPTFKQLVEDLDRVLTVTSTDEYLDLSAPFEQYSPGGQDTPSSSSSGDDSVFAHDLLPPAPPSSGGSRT

Sequence: PNAFIYVVQLP [L1CAM_Y420_A415P_YF]
phosphorylation enrichment [1]: 1.31 | phosphorylation enrichment [2]: 1.69 | phosphorylation enrichment [3]: 1.06 | phosphorylation enrichment [4]: 1.56 | phosphorylation enrichment [5]: 0.896 | phosphorylation enrichment [6]: 0.737 | phosphorylation enrichment [7]: 0.747 | phosphorylation enrichment [8]: 1.2 | phosphorylation enrichment [9]: 1.39 | phosphorylation enrichment [10]: 1.26 | phosphorylation enrichment [11]: 0.87 | phosphorylation enrichment [12]: 0.797 | phosphorylation enrichment [13]: 1.53 | SH2 binding enrichment [14]: 0.931 | SH2 binding enrichment [15]: 0.656 | SH2 binding enrichment [16]: 0.768

Sequence: PQIVKYRPDCI [LDHB_Y128_S129R]
phosphorylation enrichment [1]: 0.537 | phosphorylation enrichment [2]: 0.133 | phosphorylation enrichment [3]: 0.238 | phosphorylation enrichment [4]: 0.839 | phosphorylation enrichment [5]: 0.699 | phosphorylation enrichment [6]: 0.12 | phosphorylation enrichment [7]: 0.069 | phosphorylation enrichment [8]: 0.627 | phosphorylation enrichment [9]: 0.89 | phosphorylation enrichment [10]: 0.391 | phosphorylation enrichment [11]: 0.663 | phosphorylation enrichment [12]: 0.302 | phosphorylation enrichment [13]: 0.131 | SH2 binding enrichment [14]: 1.26 | SH2 binding enrichment [15]: 0.671 | SH2 binding enrichment [16]: 0.817

Sequence: PRDSGYSFETI [MAP1B_Y1921_S1917R_YF]
phosphorylation enrichment [1]: 1.14 | phosphorylation enrichment [2]: 0.755 | phosphorylation enrichment [3]: 0.823 | phosphorylation enrichment [4]: 1.89 | phosphorylation enrichment [5]: 0.581 | phosphorylation enrichment [6]: 1.33 | phosphorylation enrichment [7]: 1.63 | phosphorylation enrichment [8]: 0.657 | phosphorylation enrichment [9]: 1.25 | phosphorylation enrichment [10]: 2.36 | phosphorylation enrichment [11]: 1.31 | phosphorylation enrichment [12]: 0.912 | phosphorylation enrichment [13]: 1.22 | SH2 binding enrichment [14]: 1.1 | SH2 binding enrichment [15]: 1.5 | SH2 binding enrichment [16]: 0.742

Sequence: PSPMPCASCQM [FOXL2_Y215_Y215C]
phosphorylation enrichment [1]: 0.559 | phosphorylation enrichment [2]: 0.588 | phosphorylation enrichment [3]: 0.41 | phosphorylation enrichment [4]: 0.516 | phosphorylation enrichment [5]: 0.603 | phosphorylation enrichment [6]: 0.488 | phosphorylation enrichment [7]: 0.799 | phosphorylation enrichment [8]: 0.354 | phosphorylation enrichment [9]: 0.541 | phosphorylation enrichment [10]: 0.766 | phosphorylation enrichment [11]: 0.37 | phosphorylation enrichment [12]: 0.445 | phosphorylation enrichment [13]: 0.287 | SH2 binding enrichment [14]: 0.797 | SH2 binding enrichment [15]: 0.523 | SH2 binding enrichment [16]: 0.606

Sequence: PSVVAYPKRSQ [MARK3_Y432]
phosphorylation enrichment [1]: 0.949 | phosphorylation enrichment [2]: 0.409 | phosphorylation enrichment [3]: 0.573 | phosphorylation enrichment [4]: 0.793 | phosphorylation enrichment [5]: 0.565 | phosphorylation enrichment [6]: 0.531 | phosphorylation enrichment [7]: 0.522 | phosphorylation enrichment [8]: 0.517 | phosphorylation enrichment [9]: 0.834 | phosphorylation enrichment [10]: 0.531 | phosphorylation enrichment [11]: 0.309 | phosphorylation enrichment [12]: 0.39 | phosphorylation enrichment [13]: 0.413 | SH2 binding enrichment [14]: 0.554 | SH2 binding enrichment [15]: 0.367 | SH2 binding enrichment [16]: 0.476

Sequence: PTTKTYFPHFG [HBA1_Y43_D48G]
phosphorylation enrichment [1]: 0.556 | phosphorylation enrichment [2]: 0.397 | phosphorylation enrichment [3]: 0.372 | phosphorylation enrichment [4]: 0.645 | phosphorylation enrichment [5]: 0.458 | phosphorylation enrichment [6]: 0.435 | phosphorylation enrichment [7]: 0.491 | phosphorylation enrichment [8]: 0.543 | phosphorylation enrichment [9]: 0.658 | phosphorylation enrichment [10]: 0.958 | phosphorylation enrichment [11]: 0.747 | phosphorylation enrichment [12]: 0.501 | phosphorylation enrichment [13]: 0.322 | SH2 binding enrichment [14]: 1.06 | SH2 binding enrichment [15]: 0.5 | SH2 binding enrichment [16]: 0.792

Sequence: PVKTPYSLKRW [BMPR2_Y979_R974P]
phosphorylation enrichment [1]: 0.789 | phosphorylation enrichment [2]: 0.586 | phosphorylation enrichment [3]: 0.427 | phosphorylation enrichment [4]: 1.49 | phosphorylation enrichment [5]: 0.63 | phosphorylation enrichment [6]: 0.609 | phosphorylation enrichment [7]: 1.14 | phosphorylation enrichment [8]: 0.499 | phosphorylation enrichment [9]: 1.04 | phosphorylation enrichment [10]: 1.36 | phosphorylation enrichment [11]: 0.987 | phosphorylation enrichment [12]: 0.653 | phosphorylation enrichment [13]: 0.84 | SH2 binding enrichment [14]: 1.46 | SH2 binding enrichment [15]: 0.992 | SH2 binding enrichment [16]: 1.2

Sequence: PYSEPYADYGG [APBA1_Y187]
phosphorylation enrichment [1]: 2.23 | phosphorylation enrichment [2]: 0.911 | phosphorylation enrichment [3]: 1.41 | phosphorylation enrichment [4]: 1.72 | phosphorylation enrichment [5]: 1.89 | phosphorylation enrichment [6]: 1.34 | phosphorylation enrichment [7]: 1.03 | phosphorylation enrichment [8]: 1.04 | phosphorylation enrichment [9]: 2.11 | phosphorylation enrichment [10]: 1.56 | phosphorylation enrichment [11]: 4.44 | phosphorylation enrichment [12]: 3.21 | phosphorylation enrichment [13]: 1.18 | SH2 binding enrichment [14]: 0.675 | SH2 binding enrichment [15]: 6.47 | SH2 binding enrichment [16]: 0.651

Sequence: QADVTYVNTQL [MERTK_Y872_I871T]
phosphorylation enrichment [1]: 0.606 | phosphorylation enrichment [2]: 0.522 | phosphorylation enrichment [3]: 0.518 | phosphorylation enrichment [4]: 0.942 | phosphorylation enrichment [5]: 0.518 | phosphorylation enrichment [6]: 0.714 | phosphorylation enrichment [7]: 1.11 | phosphorylation enrichment [8]: 0.717 | phosphorylation enrichment [9]: 1.11 | phosphorylation enrichment [10]: 0.703 | phosphorylation enrichment [11]: 0.682 | phosphorylation enrichment [12]: 0.504 | phosphorylation enrichment [13]: 0.584 | SH2 binding enrichment [14]: 14.4 | SH2 binding enrichment [15]: 0.964 | SH2 binding enrichment [16]: 0.84

Second part, led by results:

SH2 binding enrichment [14]: 1.12 | SH2 binding enrichment [15]: 0.429 | SH2 binding enrichment [16]: 0.717
Sequence: PLDGEYFTHQI [TP53_Y327_L330H]
phosphorylation enrichment [1]: 1.55 | phosphorylation enrichment [2]: 0.656 | phosphorylation enrichment [3]: 1.65 | phosphorylation enrichment [4]: 1.43 | phosphorylation enrichment [5]: 1.99 | phosphorylation enrichment [6]: 1.08 | phosphorylation enrichment [7]: 1.5 | phosphorylation enrichment [8]: 0.932 | phosphorylation enrichment [9]: 4.62 | phosphorylation enrichment [10]: 0.99 | phosphorylation enrichment [11]: 1.61 | phosphorylation enrichment [12]: 2.17 | phosphorylation enrichment [13]: 1.15

SH2 binding enrichment [14]: 0.713 | SH2 binding enrichment [15]: 0.717 | SH2 binding enrichment [16]: 2.38
Sequence: PLQKTYNFNML [SLC4A1_Y553_V557M_YF]
phosphorylation enrichment [1]: 0.809 | phosphorylation enrichment [2]: 0.582 | phosphorylation enrichment [3]: 0.594 | phosphorylation enrichment [4]: 1.17 | phosphorylation enrichment [5]: 0.493 | phosphorylation enrichment [6]: 0.665 | phosphorylation enrichment [7]: 0.63 | phosphorylation enrichment [8]: 0.476 | phosphorylation enrichment [9]: 0.801 | phosphorylation enrichment [10]: 0.861 | phosphorylation enrichment [11]: 0.784 | phosphorylation enrichment [12]: 0.318 | phosphorylation enrichment [13]: 0.587

SH2 binding enrichment [14]: 0.85 | SH2 binding enrichment [15]: 0.624 | SH2 binding enrichment [16]: 1.1
Sequence: PLQNTYNFNVL [SLC4A1_Y553_K551N_YF]
phosphorylation enrichment [1]: 0.616 | phosphorylation enrichment [2]: 0.634 | phosphorylation enrichment [3]: 0.57 | phosphorylation enrichment [4]: 1.43 | phosphorylation enrichment [5]: 1.67 | phosphorylation enrichment [6]: 0.812 | phosphorylation enrichment [7]: 0.893 | phosphorylation enrichment [8]: 0.798 | phosphorylation enrichment [9]: 0.891 | phosphorylation enrichment [10]: 0.959 | phosphorylation enrichment [11]: 2.52 | phosphorylation enrichment [12]: 0.803 | phosphorylation enrichment [13]: 0.756

SH2 binding enrichment [14]: 0.792 | SH2 binding enrichment [15]: 0.401 | SH2 binding enrichment [16]: 0.58
Sequence: PSNTDYPGPHS [TP63_Y171]
phosphorylation enrichment [1]: 0.722 | phosphorylation enrichment [2]: 0.552 | phosphorylation enrichment [3]: 0.482 | phosphorylation enrichment [4]: 0.909 | phosphorylation enrichment [5]: 0.438 | phosphorylation enrichment [6]: 0.582 | phosphorylation enrichment [7]: 1.01 | phosphorylation enrichment [8]: 0.589 | phosphorylation enrichment [9]: 0.809 | phosphorylation enrichment [10]: 0.768 | phosphorylation enrichment [11]: 0.5 | phosphorylation enrichment [12]: 0.511 | phosphorylation enrichment [13]: 0.661

SH2 binding enrichment [14]: 0.696 | SH2 binding enrichment [15]: 0.56 | SH2 binding enrichment [16]: 0.599
Sequence: PVDVAYRRGFF [PLEC_Y2967_YF]
phosphorylation enrichment [1]: 0.535 | phosphorylation enrichment [2]: 0.586 | phosphorylation enrichment [3]: 0.595 | phosphorylation enrichment [4]: 0.833 | phosphorylation enrichment [5]: 0.424 | phosphorylation enrichment [6]: 0.584 | phosphorylation enrichment [7]: 0.574 | phosphorylation enrichment [8]: 0.456 | phosphorylation enrichment [9]: 0.909 | phosphorylation enrichment [10]: 0.728 | phosphorylation enrichment [11]: 0.475 | phosphorylation enrichment [12]: 0.504 | phosphorylation enrichment [13]: 0.44

SH2 binding enrichment [14]: 0.706 | SH2 binding enrichment [15]: 0.418 | SH2 binding enrichment [16]: 0.607
Sequence: PVGVLYKVKVF [PTS_Y128_YF]
phosphorylation enrichment [1]: 1.4 | phosphorylation enrichment [2]: 0.381 | phosphorylation enrichment [3]: 0.619 | phosphorylation enrichment [4]: 1.61 | phosphorylation enrichment [5]: 0.716 | phosphorylation enrichment [6]: 0.659 | phosphorylation enrichment [7]: 0.882 | phosphorylation enrichment [8]: 1.14 | phosphorylation enrichment [9]: 1.45 | phosphorylation enrichment [10]: 1.21 | phosphorylation enrichment [11]: 0.388 | phosphorylation enrichment [12]: 0.842 | phosphorylation enrichment [13]: 0.906

SH2 binding enrichment [14]: 1.07 | SH2 binding enrichment [15]: 0.759 | SH2 binding enrichment [16]: 1.12
Sequence: PYRFIYMAVQH [PTPN11_Y515_Q510P]
phosphorylation enrichment [1]: 1.76 | phosphorylation enrichment [2]: 2.14 | phosphorylation enrichment [3]: 5.48 | phosphorylation enrichment [4]: 2.08 | phosphorylation enrichment [5]: 5.01 | phosphorylation enrichment [6]: 2.9 | phosphorylation enrichment [7]: 1.67 | phosphorylation enrichment [8]: 3.56 | phosphorylation enrichment [9]: 1.92 | phosphorylation enrichment [10]: 1.08 | phosphorylation enrichment [11]: 3.36 | phosphorylation enrichment [12]: 1.87 | phosphorylation enrichment [13]: 2.45

SH2 binding enrichment [14]: 0.778 | SH2 binding enrichment [15]: 0.709 | SH2 binding enrichment [16]: 0.86
Sequence: QAFSWYQHQRA [NDST1_Y714_R709Q_YF]
phosphorylation enrichment [1]: 1.02 | phosphorylation enrichment [2]: 0.569 | phosphorylation enrichment [3]: 0.547 | phosphorylation enrichment [4]: 1.64 | phosphorylation enrichment [5]: 0.658 | phosphorylation enrichment [6]: 0.863 | phosphorylation enrichment [7]: 0.731 | phosphorylation enrichment [8]: 1.03 | phosphorylation enrichment [9]: 1.61 | phosphorylation enrichment [10]: 1.43 | phosphorylation enrichment [11]: 0.371 | phosphorylation enrichment [12]: 0.687 | phosphorylation enrichment [13]: 0.71
